# Data taken from publication PMC5041027 (Membranes, 2016).
# B1: Bacillus anthracis Lethal Factor (natural protein)
# chain: AGGHGDVGMHVKEKEKNKDENKRKDEERNKTQEEHLKEIMKHIVKIEVKGEEAVKKEAAEKLLEKVPSDVLEMYKAIGGKIYIVDGDITKHISLEALSEDKKKIKDIYGKDALLHEHYVYAKEGYEPVLVIQSSEDYVENTEKALNVYYEIGKILSRDILSKINQPYQKFLDVLNTIKNASDSDGQDLLFTNQLKEHPTDFSVEFLEQNSNEVQEVFAKAFAYYIEPQHRDVLQLYAPEAFNYMDKFNEQEINLSLEELKDQRMLARYEKWEKIKQHYQHWSDSLSEEGRGLLKKLQIPIEPKKDDIIHSLSQEEKELLKRIQIDSSDFLSTEEKEFLKKLQIDIRDSLSEEEKELLNRIQVDSSNPLSEKEKEFLKKLKLDIQPYDINQRLQDTGGLIDSPSINLDVRKQYKRDIQNIDALLHQSIGSTLYNKIYLYENMNINNLTATLGADLVDSTDNTKINRGIFNEFKKNFKYSISSNYMIVDINERPALDNERLKWRIQLSPDTRAGYLENGKLILQRNIGLEIKDVQIIKQSEKEYIRIDAKVVPKSKIDTKIQEAQLNINQEWNKALGLPKYTKLITFNVHNRYASNIVESAYLILNEWKNNIQSDLIKKVTNYLVDGNGRFVFTDITLPNIAEQYTHQDEIYEQVHSKGLYVPESRSILLHGPSKGVELRNDSEGFIHEFGHAVDDYAGYLLDKNQSDLVTNSKKFIDIFKEEGSNLTSYGRTNEAEFFAEAFRLMHSTDHAERLKVQKNAPKTFQFINDQIKFIINS
# Target: Bacillus anthracis protective antigen, 63 kDa activated form (PA63), as ion channels in a tethered b (B. anthracis, UniProt P13423)
# Test: SPR
# Settings: both partners purified
# Chain of Bacillus anthracis protective antigen, 63 kDa activated form (PA63), as ion channels in a tethered b (P13423 197-764): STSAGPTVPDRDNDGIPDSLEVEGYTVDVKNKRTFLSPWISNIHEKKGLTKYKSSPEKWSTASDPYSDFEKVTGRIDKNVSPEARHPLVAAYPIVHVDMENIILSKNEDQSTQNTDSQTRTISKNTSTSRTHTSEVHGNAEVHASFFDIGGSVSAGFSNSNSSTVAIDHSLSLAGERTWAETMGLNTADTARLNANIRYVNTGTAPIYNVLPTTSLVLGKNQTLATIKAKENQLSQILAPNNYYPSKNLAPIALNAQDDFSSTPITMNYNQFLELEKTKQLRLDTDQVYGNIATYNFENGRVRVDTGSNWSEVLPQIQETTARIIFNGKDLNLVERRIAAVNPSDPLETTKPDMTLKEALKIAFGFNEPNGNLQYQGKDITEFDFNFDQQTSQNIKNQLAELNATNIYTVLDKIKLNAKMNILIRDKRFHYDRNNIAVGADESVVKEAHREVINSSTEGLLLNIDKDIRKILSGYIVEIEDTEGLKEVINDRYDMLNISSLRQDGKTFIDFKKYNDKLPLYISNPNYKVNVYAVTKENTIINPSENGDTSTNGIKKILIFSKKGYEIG
binder,measurement,value
B1,stoichiometry N,2 LF molecules per PA63 channel
